Results: publication PMC4757451

Substrate: NC(=O)N1c2ccccc2C=Cc2ccccc21
Test: Steady-state NADPH oxidation by CYP3A4 Nanodiscs with CPR
Format: biochemical, human
Conditions: other: at 30 µM PGS; at 200 µM CBZ; pH 7.4; 37.0 °C

B1: CYP3A4 (Homo sapiens; S18F) (protein)
chain: MALLLAVFLVLLYLYGTHSHGLFKKLGIPGPTPLPFLGNILSYHKGFCMFDMECHKKYGKVWGFYDGQQPVLAITDPDMIKTVLVKECYSVFTNRRPFGPVGFMKSAISIAEDEEWKRLRSLLSPTFTSGKLKEMVPIIAQYGDVLVRNLRREAETGKPVTLKDVFGAYSMDVITSTSFGVNIDSLNNPQDPFVENTKKLLRFDFLDPFFLSITVFPFLIPILEVLNICVFPREVTNFLRKSVKRMKESRLEDTQKHRVDFLQLMIDSQNSKETESHKALSDLELVAQSIIFIFAGYETTSSVLSFIMYELATHPDVQQKLQEEIDAVLPNKAPPTYDTVLQMEYLDMVVNETLRLFPIAMRLERVCKKDVEINGMFIPKGVVVMIPSYALHRDPKYWTEPEKFLPERFSKKNKDNIDPYIYTPFGSGPRNCIGMRFALMNMKLALIRVLQNFSFKPCKETQIPLKLSLGGLLQPEKPVVLKVESRDGTVSGA
- kcat: 2.05 s⁻¹
